# Patent US8785600B2, “Anti-GCC antibody molecules and related compositions and methods” (Millennium Pharmaceuticals, Inc., priority 2009, dated 2014)
# Legend:
# [1] = system: GCC-expressing cells (T84 cells compared to MCF-7 cells; vector control cells); assay: Internalization assay (immunofluorescence microscopy); format: cell-based, human; conditions: 10 μg/ml, 37° C.
# Procedure: Internalization of anti-GCC antibody molecules was tested in both GCC-expressing cells and vector control cells, using immunofluorescence microscopy. Cells were grown on coverslips and placed on ice for 10 minutes prior to incubation with 10 μg/ml antibody in cold culture medium for 20 minutes on ice. For internalization, antibody-containing medium was replaced with fresh culture medium and the cells were shifted to 37° C. for 2-3 hours or maintained on ice. After rinsing in PBS and a brief fixation in 4% paraformaldehyde at room temperature, cells were permeabilized for 15 min in 0/5% TRITON X-100. The localization of the test antibody was determined using a fluorescently labeled anti-IgG antibody by laser scanning confocal microscopy. Antibody molecules localized to the cell surface of GCC-expressing cells when on ice.
# Most of the antibodies generated herein were tested in a number of the assays described above. (T84=human colon tumor cells, MCF7=human breast tumor cells, WB=western blot, IP=immunoprecipitation, IHC=immunohistochemistry; internalization used T84 cells compared to MCF-7 cells)
# rat GCC = target: T1, rat GCC (Rattus norvegicus, UniProt P23897); assay: Cross-reactivity with GCC orthologs (ELISA); format: binding
# T1 sequence (P23897 23-1072): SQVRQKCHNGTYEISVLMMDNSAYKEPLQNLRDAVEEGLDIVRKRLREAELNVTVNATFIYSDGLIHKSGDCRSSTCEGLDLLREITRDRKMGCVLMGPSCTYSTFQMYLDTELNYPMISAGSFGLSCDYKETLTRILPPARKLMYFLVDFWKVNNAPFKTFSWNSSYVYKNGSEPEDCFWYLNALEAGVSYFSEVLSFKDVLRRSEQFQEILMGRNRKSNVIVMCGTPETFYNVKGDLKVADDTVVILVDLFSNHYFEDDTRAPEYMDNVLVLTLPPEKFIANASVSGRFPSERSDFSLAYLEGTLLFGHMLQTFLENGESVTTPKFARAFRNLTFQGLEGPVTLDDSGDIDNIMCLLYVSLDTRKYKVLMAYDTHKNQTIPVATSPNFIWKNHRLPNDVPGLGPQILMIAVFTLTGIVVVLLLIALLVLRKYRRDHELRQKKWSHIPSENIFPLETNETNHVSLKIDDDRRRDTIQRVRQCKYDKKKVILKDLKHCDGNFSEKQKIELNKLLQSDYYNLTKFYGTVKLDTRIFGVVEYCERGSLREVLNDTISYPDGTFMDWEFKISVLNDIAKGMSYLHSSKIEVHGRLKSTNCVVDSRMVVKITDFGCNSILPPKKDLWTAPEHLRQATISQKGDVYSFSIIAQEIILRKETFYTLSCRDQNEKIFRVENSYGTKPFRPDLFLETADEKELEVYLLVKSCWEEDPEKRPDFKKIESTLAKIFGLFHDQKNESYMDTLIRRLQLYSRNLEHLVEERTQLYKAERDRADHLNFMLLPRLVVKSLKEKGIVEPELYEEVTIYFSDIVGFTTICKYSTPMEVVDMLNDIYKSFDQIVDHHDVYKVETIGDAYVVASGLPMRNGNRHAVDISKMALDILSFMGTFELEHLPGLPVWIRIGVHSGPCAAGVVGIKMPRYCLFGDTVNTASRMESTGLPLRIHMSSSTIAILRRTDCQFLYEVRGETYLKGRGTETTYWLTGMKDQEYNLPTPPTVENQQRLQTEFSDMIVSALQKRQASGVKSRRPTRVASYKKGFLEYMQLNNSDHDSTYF
# Description: (§1) FIG. 4 depicts ELISA binding assays to test antibody cross-reactivity of GCC orthologs.
# mouse GCC = target: T2, mouse GCC (Mus musculus, UniProt Q3UWA6); assay: Cross-reactivity with GCC orthologs (ELISA); format: binding
# T2 sequence (Q3UWA6 20-1072): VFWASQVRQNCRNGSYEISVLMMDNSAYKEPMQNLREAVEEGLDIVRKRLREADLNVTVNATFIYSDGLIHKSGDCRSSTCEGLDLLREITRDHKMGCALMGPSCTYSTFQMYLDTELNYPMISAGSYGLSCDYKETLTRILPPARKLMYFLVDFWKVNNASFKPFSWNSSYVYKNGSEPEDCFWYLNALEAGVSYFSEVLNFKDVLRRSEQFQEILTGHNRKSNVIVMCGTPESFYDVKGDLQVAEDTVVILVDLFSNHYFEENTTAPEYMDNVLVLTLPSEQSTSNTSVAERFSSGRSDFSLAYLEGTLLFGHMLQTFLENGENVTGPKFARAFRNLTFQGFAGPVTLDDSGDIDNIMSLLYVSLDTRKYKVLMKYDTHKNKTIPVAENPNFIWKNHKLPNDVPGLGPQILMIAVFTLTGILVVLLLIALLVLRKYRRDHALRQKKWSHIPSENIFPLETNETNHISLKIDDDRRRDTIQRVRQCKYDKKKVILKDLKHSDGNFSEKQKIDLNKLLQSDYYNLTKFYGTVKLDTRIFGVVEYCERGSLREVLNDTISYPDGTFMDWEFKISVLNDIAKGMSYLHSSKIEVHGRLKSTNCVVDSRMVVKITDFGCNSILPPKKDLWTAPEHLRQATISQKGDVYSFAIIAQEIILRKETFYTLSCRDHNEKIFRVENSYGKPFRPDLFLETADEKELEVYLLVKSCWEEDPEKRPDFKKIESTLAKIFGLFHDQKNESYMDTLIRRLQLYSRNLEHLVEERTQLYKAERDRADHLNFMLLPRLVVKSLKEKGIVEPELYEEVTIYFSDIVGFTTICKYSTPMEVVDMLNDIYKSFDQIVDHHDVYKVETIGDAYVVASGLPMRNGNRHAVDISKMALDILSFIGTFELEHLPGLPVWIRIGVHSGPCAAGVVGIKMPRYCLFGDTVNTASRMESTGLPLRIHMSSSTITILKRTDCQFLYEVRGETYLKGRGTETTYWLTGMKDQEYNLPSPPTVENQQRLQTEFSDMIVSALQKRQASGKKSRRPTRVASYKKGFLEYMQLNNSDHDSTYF
# Description: as §1
substance,measurement,setting,value
"5F9: Human anti-GCC mAb (IgG2, kappa) of hybridoma 5F9, ATCC PTA-8132; VH SEQ ID NO:18, VL SEQ ID NO:20; also engineered as IgG1",Internalization (localization of antibody by confocal microscopy),[1],"punctuate staining within the cell membrane, indicative of internalization"
same,Binding to rat GCC,rat GCC,does not bind
same,Binding to mouse GCC,mouse GCC,does not bind
